From patent US20260116949A1

Target: endogenous TCRs of un-transduced activated human T cells (Untd)
Experiment: flow cytometry, FITC-anti-human TCR Vβ13.1 staining of un-transduced activated human T cells

FITC anti-human TCR Vβ13.1 Antibody (EBIOSCIENCE, …X, THERMO FISHER …)
% of cells positive for staining: 3.9%
